These results are taken from patent US20240321457A1, “SYSTEMS FOR AND METHODS OF TREATMENT SELECTION” (THE REGENTS OF THE UNIVERSITY OF CALIFORNIA, priority 2020, published 2024).

The target in the assay is UBE2N (human) (UniProt P61088). Put plainly: AP-MS, PPI score from compPASS and SAINTexpress, MDA-MB-231 cells.
Chain of UBE2N (human) (P61088 whole entry): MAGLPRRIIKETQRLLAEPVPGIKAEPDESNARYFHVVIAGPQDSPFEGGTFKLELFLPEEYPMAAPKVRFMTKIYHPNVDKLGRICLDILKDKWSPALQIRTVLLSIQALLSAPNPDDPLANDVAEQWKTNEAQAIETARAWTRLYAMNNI

In turn, “BRCA1 isoform lacking exon 11 (from UniProt P38398 1-721) (enzyme)” displayed a PPI score of less than 0.6.
